Test results: publication doi:10.1101/2025.03.15.643416

Target: MMLVRT-WT (Moloney murine leukemia virus, UniProt P03355 660-1330)
Experiment: DSF thermal shift

B1: T/P (RNA template/DNA primer) (DNA:RNA)
DNA: TGGAATCAGGTGTCGCACTCTG
RNA: AACAGAGUGCGACACCUGAUUCCAU
B1: binds.
